# From patent US20240117018A1
# How the values were obtained:
# Assay in all cases: cell-based or functional assay
# [1] = biological target: HIV-1 Env of pseudovirus Q23.17 (HIV-1)
# [2] = biological target: HIV-1 Env of pseudovirus Ce1176_A3 (HIV-1)
# [3] = biological target: HIV-1 Env of pseudovirus Ce1086_B2 (HIV-1)
# [4] = biological target: HIV-1 Env of pseudovirus HIV-0013095-2.11 (HIV-1)
# [5] = biological target: HIV-1 Env of pseudovirus Ce2060_G9 (HIV-1)
# [6] = biological target: HIV-1 Env of pseudovirus CNE17 (HIV-1)
# [7] = biological target: HIV-1 Env of pseudovirus WEAU_d15_410_787 (HIV-1)
# [8] = biological target: HIV-1 Env of pseudovirus Q461.e2 (HIV-1)
# [9] = biological target: HIV-1 Env of pseudovirus BF1266.431a (HIV-1)
# [10] = biological target: HIV-1 Env of pseudovirus TRO.11 (HIV-1)
# [11] = biological target: HIV-1 Env of pseudovirus Q259.d2.17 (HIV-1)
# [12] = biological target: HIV-1 Env of pseudovirus SC422661.8 (HIV-1)
# [13] = biological target: HIV-1 Env of pseudovirus CAAN5342.A2 (HIV-1)
# [14] = biological target: HIV-1 Env of pseudovirus Q769.d22 (HIV-1)
# [15] = biological target: HIV-1 Env of pseudovirus 1394C9G1(Rev-) (HIV-1)
# [16] = biological target: HIV-1 Env of pseudovirus 62357_14_D3_4589 (HIV-1)
# [17] = biological target: HIV-1 Env of pseudovirus ZM247v1(Rev-) (HIV-1)
# [18] = biological target: HIV-1 Env of pseudovirus HIV-16055-2.3 (HIV-1)
# [19] = biological target: HIV-1 Env of pseudovirus ZM53M.PB12 (HIV-1)
# [20] = biological target: HIV-1 Env of pseudovirus CNE21 (HIV-1)
# [21] = biological target: HIV-1 Env of pseudovirus AC10.0.29 (HIV-1)
# [22] = biological target: HIV-1 Env of pseudovirus ZM109F.PB4 (HIV-1)
# [23] = biological target: HIV-1 Env of pseudovirus MS208.A1 (HIV-1)
# [24] = biological target: HIV-1 Env of pseudovirus 249M B10 (HIV-1)
# [25] = biological target: HIV-1 Env of pseudovirus ZM135M.PL10a (HIV-1)
# [26] = biological target: HIV-1 Env of pseudovirus CNE19 (HIV-1)
# [27] = biological target: HIV-1 Env of pseudovirus 7030102001E5(Rev-) (HIV-1)
# [28] = biological target: HIV-1 Env of pseudovirus CNE58 (HIV-1)
substance,measurement,setting,value
VRC07 (antibody),IC50,[1],0.081 µg/mL
same,IC80,[1],0.236 µg/mL
same,IC50,[2],0.52 µg/mL
same,IC80,[2],2.6 µg/mL
same,IC50,[3],0.128 µg/mL
same,IC80,[3],0.84 µg/mL
same,IC50,[4],0.017 µg/mL
same,IC80,[4],0.057 µg/mL
same,IC50,[5],0.085 µg/mL
same,IC80,[5],0.422 µg/mL
same,IC50,[6],0.136 µg/mL
same,IC80,[6],0.651 µg/mL
same,IC50,[7],0.034 µg/mL
same,IC80,[7],0.115 µg/mL
same,IC50,[8],0.282 µg/mL
same,IC80,[8],1.02 µg/mL
same,IC50,[9],0.032 µg/mL
same,IC80,[9],0.117 µg/mL
same,IC50,[10],0.132 µg/mL
same,IC80,[10],0.456 µg/mL
same,IC50,[11],0.024 µg/mL
same,IC80,[11],0.1 µg/mL
same,IC50,[12],0.054 µg/mL
same,IC80,[12],0.175 µg/mL
same,IC50,[13],0.307 µg/mL
same,IC80,[13],1.05 µg/mL
same,IC50,[14],0.018 µg/mL
same,IC80,[14],0.087 µg/mL
same,IC50,[15],0.112 µg/mL
same,IC80,[15],0.368 µg/mL
same,IC50,[16],0.075 µg/mL
same,IC80,[16],0.256 µg/mL
same,IC50,[17],0.041 µg/mL
same,IC80,[17],0.189 µg/mL
same,IC50,[18],0.025 µg/mL
same,IC80,[18],0.135 µg/mL
same,IC50,[19],0.275 µg/mL
same,IC80,[19],1.29 µg/mL
same,IC50,[20],0.05 µg/mL
same,IC80,[20],0.222 µg/mL
same,IC50,[21],0.282 µg/mL
same,IC80,[21],0.986 µg/mL
same,IC50,[22],0.112 µg/mL
same,IC80,[22],0.389 µg/mL
same,IC50,[23],0.12 µg/mL
same,IC80,[23],0.425 µg/mL
same,IC50,[24],0.052 µg/mL
same,IC80,[24],0.204 µg/mL
same,IC50,[25],0.104 µg/mL
same,IC80,[25],0.383 µg/mL
same,IC50,[26],0.092 µg/mL
same,IC80,[26],0.232 µg/mL
same,IC50,[27],0.205 µg/mL
same,IC80,[27],0.911 µg/mL
same,IC50,[28],0.11 µg/mL
same,IC80,[28],0.298 µg/mL
